pKd: −log10 of the molar value.
Legend:
[1] = biological target: cyno PD-1_Fc (cyno); assay: bio-layer interferometry (ForteBio), Fab in solution, cyno PD-1_Fc on sensor tip
[2] = biological target: human PD-1 on cells (CHO cells; T cells in the mixed lymphocyte reaction) (human) (UniProt Q15116); assay: cell-based or functional assay
[3] = biological target: human PD-1 on cells (CHO cells; T cells in the mixed lymphocyte reaction) (human) (UniProt Q15116); assay: flow cytometry, remaining PD-L2-FITC signal after 100 nM IgG; competitor PD-L2-FITC

human PD-1 on cells (CHO cells; T cells in the mixed lymphocyte reaction) (human), sequence (Q15116 25-288 limits assumed): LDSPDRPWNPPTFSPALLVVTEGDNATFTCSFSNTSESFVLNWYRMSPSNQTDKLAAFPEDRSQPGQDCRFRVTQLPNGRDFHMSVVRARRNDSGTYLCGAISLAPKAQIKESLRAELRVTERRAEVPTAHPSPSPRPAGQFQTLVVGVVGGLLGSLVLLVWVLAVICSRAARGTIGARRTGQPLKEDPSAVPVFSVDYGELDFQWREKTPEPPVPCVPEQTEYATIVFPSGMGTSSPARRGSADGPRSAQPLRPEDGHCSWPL
Fab of pembrolizumab, sequence (VH): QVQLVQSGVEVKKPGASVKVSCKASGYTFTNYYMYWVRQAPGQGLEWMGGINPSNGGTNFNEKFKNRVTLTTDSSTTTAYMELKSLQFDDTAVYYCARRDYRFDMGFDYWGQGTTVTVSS
Fab of pembrolizumab, sequence (VL): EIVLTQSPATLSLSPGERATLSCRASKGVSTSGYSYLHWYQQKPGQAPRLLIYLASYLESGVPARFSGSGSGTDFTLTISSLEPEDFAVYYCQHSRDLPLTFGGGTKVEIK

pKd [1]	IFNγ in supernatant, 0.01 nM IgG (IgG control, baseline of the fold change) [2] [pg/mL]	IFNγ in supernatant, 0.1 nM IgG (IgG control, baseline of the fold change) [2] [pg/mL]	IFNγ in supernatant, 1 nM IgG (IgG control, baseline of the fold change) [2] [pg/mL]	IFNγ in supernatant, 10 nM IgG (IgG control, baseline of the fold change) [2] [pg/mL]	IFNγ in supernatant, 100 nM IgG (IgG control, baseline of the fold change) [2] [pg/mL]	IL-2 in supernatant, 0.01 nM IgG (IgG control, baseline of the fold change) [2] [pg/mL]	IL-2 in supernatant, 0.1 nM IgG (IgG control, baseline of the fold change) [2] [pg/mL]	IL-2 in supernatant, 1 nM IgG (IgG control, baseline of the fold change) [2] [pg/mL]	IL-2 in supernatant, 10 nM IgG (IgG control, baseline of the fold change) [2] [pg/mL]	IL-2 in supernatant, 100 nM IgG (IgG control, baseline of the fold change) [2] [pg/mL]	MFI (PD-L2-FITC) [3] [MFI]	Substance
8.92												Fab of nivolumab
	14900	11000	11600	13500	14900	515	509	500	522	619	183000	IgG Control (antibody)
9.33												Fab of pembrolizumab
